Source: the supplement of paper PMC9112550, “Optimization of the antimicrobial peptide Bac7 by deep mutational scanning” (BMC Biology, 2022)
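Note: peptides expressed intracellularly from a pBAD plasmid library in pooled LB shake-flask culture, induced with 0.3% L-arabinose, DNA abundance read by NGS, three biological replicates, DESeq2 with apeglm shrinkage.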

The sequences below were run on Escherichia coli TOP10 (assay: shrunken log2 fold change of peptide-encoding DNA abundance (4.5 h post-induction vs induction); higher = less antimicrobial activity (less host growth inhibition)). Conditions: time post-induction: 4.5 h; library: site-saturation at positions 5, 18, 19, 20.
RRIRMRPPRLPRPRPRPIWQPRP was tested, and the “shrunken log2 fold change” value was -0.224. RRIRMRPPRLPRPRPRPIWRPRP was tested, and the “shrunken log2 fold change” value was 0.128. RRIRMRPPRLPRPRPRPIYAPRP was tested, and the “shrunken log2 fold change” value was 1.86. In the case of RRIRMRPPRLPRPRPRPIYDPRP, the “shrunken log2 fold change” value was -0.265. For RRIRMRPPRLPRPRPRPIYHPRP, the “shrunken log2 fold change” value was -0.322. With RRIRMRPPRLPRPRPRPIYSPRP the “shrunken log2 fold change” value was -0.0833. RRIRMRPPRLPRPRPRPKCMPRP was tested, and the “shrunken log2 fold change” value was 0.745. In the case of RRIRMRPPRLPRPRPRPKDCPRP, the “shrunken log2 fold change” value was -0.0772. With RRIRMRPPRLPRPRPRPKECPRP the “shrunken log2 fold change” value was -0.0981. With RRIRMRPPRLPRPRPRPKFDPRP the “shrunken log2 fold change” value was 0.217. With RRIRMRPPRLPRPRPRPKFGPRP the “shrunken log2 fold change” value was -0.0062. RRIRMRPPRLPRPRPRPKFTPRP was tested, and the “shrunken log2 fold change” value was 0.313. RRIRMRPPRLPRPRPRPKHPPRP was tested, and the “shrunken log2 fold change” value was 0.612. For RRIRMRPPRLPRPRPRPKICPRP, the “shrunken log2 fold change” value was -0.155. For RRIRMRPPRLPRPRPRPKINPRP, the “shrunken log2 fold change” value was -0.194. With RRIRMRPPRLPRPRPRPKIQPRP the “shrunken log2 fold change” value was 0.158. In the case of RRIRMRPPRLPRPRPRPKKDPRP, the “shrunken log2 fold change” value was 0.942. RRIRMRPPRLPRPRPRPKLGPRP was tested, and the “shrunken log2 fold change” value was 0.597. For RRIRMRPPRLPRPRPRPKPEPRP, the “shrunken log2 fold change” value was 0.0854. RRIRMRPPRLPRPRPRPKPGPRP was tested, and the “shrunken log2 fold change” value was 1.31. In the case of RRIRMRPPRLPRPRPRPKPRPRP, the “shrunken log2 fold change” value was 1.63. For RRIRMRPPRLPRPRPRPKRLPRP, the “shrunken log2 fold change” value was 0.0697. With RRIRMRPPRLPRPRPRPKSEPRP the “shrunken log2 fold change” value was 0.0246. In the case of RRIRMRPPRLPRPRPRPKSLPRP, the “shrunken log2 fold change” value was 0.171. In the case of RRIRMRPPRLPRPRPRPKTPPRP, the “shrunken log2 fold change” value was 3.35. With RRIRMRPPRLPRPRPRPKTSPRP the “shrunken log2 fold change” value was 0.641. For RRIRMRPPRLPRPRPRPKVTPRP, the “shrunken log2 fold change” value was 0.209. For RRIRMRPPRLPRPRPRPKWDPRP, the “shrunken log2 fold change” value was 0.68. For RRIRMRPPRLPRPRPRPKWRPRP, the “shrunken log2 fold change” value was 0.797. In the case of RRIRMRPPRLPRPRPRPKYMPRP, the “shrunken log2 fold change” value was 0.00659. RRIRMRPPRLPRPRPRPKYQPRP was tested, and the “shrunken log2 fold change” value was 0.0592. In the case of RRIRMRPPRLPRPRPRPKYRPRP, the “shrunken log2 fold change” value was 0.0666. With RRIRMRPPRLPRPRPRPLAIPRP the “shrunken log2 fold change” value was 0.173. With RRIRMRPPRLPRPRPRPLGIPRP the “shrunken log2 fold change” value was 0.0188. In the case of RRIRMRPPRLPRPRPRPLGQPRP, the “shrunken log2 fold change” value was 0.738. With RRIRMRPPRLPRPRPRPLGWPRP the “shrunken log2 fold change” value was 1.32. RRIRMRPPRLPRPRPRPLGYPRP was tested, and the “shrunken log2 fold change” value was -0.264. With RRIRMRPPRLPRPRPRPLHAPRP the “shrunken log2 fold change” value was 1.29. For RRIRMRPPRLPRPRPRPLHHPRP, the “shrunken log2 fold change” value was -0.0632. With RRIRMRPPRLPRPRPRPLHKPRP the “shrunken log2 fold change” value was 0.301. With RRIRMRPPRLPRPRPRPLHSPRP the “shrunken log2 fold change” value was 0.0835. With RRIRMRPPRLPRPRPRPLIDPRP the “shrunken log2 fold change” value was 0.356. In the case of RRIRMRPPRLPRPRPRPLITPRP, the “shrunken log2 fold change” value was 0.0495. For RRIRMRPPRLPRPRPRPLKNPRP, the “shrunken log2 fold change” value was -0.0484. With RRIRMRPPRLPRPRPRPLKVPRP the “shrunken log2 fold change” value was 0.153. With RRIRMRPPRLPRPRPRPLKWPRP the “shrunken log2 fold change” value was 0.196. With RRIRMRPPRLPRPRPRPLMIPRP the “shrunken log2 fold change” value was -0.159. In the case of RRIRMRPPRLPRPRPRPLMVPRP, the “shrunken log2 fold change” value was 0.396. For RRIRMRPPRLPRPRPRPLPCPRP, the “shrunken log2 fold change” value was 0.372. In the case of RRIRMRPPRLPRPRPRPLPEPRP, the “shrunken log2 fold change” value was 1.24. With RRIRMRPPRLPRPRPRPLPHPRP the “shrunken log2 fold change” value was 0.407. RRIRMRPPRLPRPRPRPLPRPRP was tested, and the “shrunken log2 fold change” value was 2.48. RRIRMRPPRLPRPRPRPLPSPRP was tested, and the “shrunken log2 fold change” value was 0.942. In the case of RRIRMRPPRLPRPRPRPLPVPRP, the “shrunken log2 fold change” value was 0.872. For RRIRMRPPRLPRPRPRPLRSPRP, the “shrunken log2 fold change” value was 2.47. In the case of RRIRMRPPRLPRPRPRPLSHPRP, the “shrunken log2 fold change” value was 0.177. RRIRMRPPRLPRPRPRPLTAPRP was tested, and the “shrunken log2 fold change” value was 1.15. In the case of RRIRMRPPRLPRPRPRPLTIPRP, the “shrunken log2 fold change” value was 0.19. RRIRMRPPRLPRPRPRPLVEPRP was tested, and the “shrunken log2 fold change” value was 2.17. With RRIRMRPPRLPRPRPRPLVVPRP the “shrunken log2 fold change” value was 0.0644. For RRIRMRPPRLPRPRPRPLWNPRP, the “shrunken log2 fold change” value was -0.182. With RRIRMRPPRLPRPRPRPLWWPRP the “shrunken log2 fold change” value was 0.795. With RRIRMRPPRLPRPRPRPLYDPRP the “shrunken log2 fold change” value was -0.0878. For RRIRMRPPRLPRPRPRPLYQPRP, the “shrunken log2 fold change” value was -0.38. For RRIRMRPPRLPRPRPRPMCMPRP, the “shrunken log2 fold change” value was -0.179. In the case of RRIRMRPPRLPRPRPRPMEIPRP, the “shrunken log2 fold change” value was -0.129. For RRIRMRPPRLPRPRPRPMFGPRP, the “shrunken log2 fold change” value was 0.0113. RRIRMRPPRLPRPRPRPMGEPRP was tested, and the “shrunken log2 fold change” value was 0.792. RRIRMRPPRLPRPRPRPMHDPRP was tested, and the “shrunken log2 fold change” value was 0.192. For RRIRMRPPRLPRPRPRPMHSPRP, the “shrunken log2 fold change” value was 0.126. With RRIRMRPPRLPRPRPRPMIDPRP the “shrunken log2 fold change” value was -0.0842. With RRIRMRPPRLPRPRPRPMILPRP the “shrunken log2 fold change” value was -0.0491. For RRIRMRPPRLPRPRPRPMISPRP, the “shrunken log2 fold change” value was -0.0256. RRIRMRPPRLPRPRPRPMKQPRP was tested, and the “shrunken log2 fold change” value was 0.0424. For RRIRMRPPRLPRPRPRPMMVPRP, the “shrunken log2 fold change” value was -0.00664.
